Measured values as given in patent US20240247072A1 (KEYMED BIOSCIENCES, published 2024).
Substitutions are numbered along the chain they refer to.

B1: humanized antibody Ab004 (IgG1 wild type) (antibody, V domains shown)
VH: QVQLVQSGSELKKPGASVKVSCKASGYTFTNYGMNWVRQAPGQGLEWMGWINTYTGEPTYADGFTGRFVFSLDTSASTAYLQISSLKAEDTAVYFCAREEDYRYVFNYWGQGTLVTVSS
VL: DIQMTQSPSSLSASVGDRVTITCQASQDISNYLNWYQQKPGKAPKLLIYDTSRLHAGVPSRFSGSGSGTDYTFTISSLQPEDIATYFCQQGVTLPLTFGQGTKLEIK
notes: also called Ab004 IgG1 wt; h39H5 VHv2 + h39H5 VKv1
B2: humanized antibody Ab001 (antibody, human IgG1, V domains shown)
VH: B1 VH with V2I
VL: B1 VL
notes: also called h39H5 VHv1 + h39H5 VKv1
B3: humanized antibody Ab007 (antibody, human IgG1, V domains shown)
VH: B1 VH with F95Y
VL: B1 VL
notes: also called Ab007 IgG1; h39H5 VHv3 + h39H5 VKv1
B4: 25H7 Fab antibody (Fab, V domains shown)
VH: EIQLVQSGPELKKPGETVKISCKASGYTFTNYGMNWVKQTPGKGLKWMGWINTDTGEPTYADDFKGRFAFSLETSASTAYLQINNLKNEDMATYFCAREEDYRYVFNYWGQGTTLTVSS
VL: DIQMTQTTSSLSASLGDRVTISCRASQDISNYLNWYQQKPDGTVKLLIYYTSRLHSGVPSRFSGSGSGTDYSLTISNLEQEDIATYFCQQGVTLPLTFGAGTKLELK
notes: Purified Fab from the mouse Fab phage display library
B5: 39H5 Fab antibody (Fab, V domains shown)
VH: B4 VH with T40A, K43Q, D54Y, K65T, T93A
VL: B4 VL with T5I, T7S, D17N, Y50D, S56A, L106I
notes: as for B4
B6: 26G11 Fab antibody (Fab, V domains shown)
VH: QVQLQQSGPELVKPGASVKISCKTSGYTFADYTMHWVRQSQGKSLEWIGDIYPNDGGPNNNQKFKDKATLTVDKSSSTAYMELRSLTSEDSAVYYCARPFYYGNYAGFAFWGQGTLVTVSA
VL: EMVLTQSPAIMSASPGEKVTMTCSASSSVSYMYWYQQKPGSSPRLLIYDTSNLASGVPVRFSGSGSGTSYSLTISRMEAEDAATYYCQQWSSYPLTFGAGTRLEIK
notes: as for B4

Tests used:
[1] = biological target: T1, human CD70, full length, on CHO cells (CHO-human CD70-B07) (human, UniProt P32970 1-193); assay: flow cytometry, humanized IgG1 on CHO-human CD70 cells
T1 construct: whole, on cells; Stably transfected CHO cells; also called CHO-CD70
T1 sequence (looked up): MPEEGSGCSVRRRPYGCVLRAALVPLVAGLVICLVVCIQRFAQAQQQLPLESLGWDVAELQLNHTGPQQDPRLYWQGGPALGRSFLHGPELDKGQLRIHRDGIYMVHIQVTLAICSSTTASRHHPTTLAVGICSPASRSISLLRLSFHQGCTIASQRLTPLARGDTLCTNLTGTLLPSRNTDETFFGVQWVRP
Protocol: (§1) The supernatant was discarded and the cells were gently tapped to be loosening. 50 μL of gradient diluted antibodies were added (antibody concentration: from 30 μg/mL, 3-fold dilution for 8 gradients) per well, and incubated at 4° C. for 1 hour. After incubation, 200 μL of 0.5% BSA was added to each well for washing 3 times. 50 μL/well of secondary antibody Alexa Fluro647 anti-human IgG (Jackson ImmunoResearch, Cat. No: 109-606-170) was added and incubated at 4° C. for 45 minutes. At the end of the incubation, each well was washed 3 times with 180 μL of 0.5% BSA and finally resuspended in 50 μL of PBS for iQue (Intellicyt) assay.

[2] = biological target: FcγRIIIV158 on PBMC of FcγRIIIV158/V158 volunteers (human) (UniProt P08637); assay: cell-based or functional assay
Chain of FcγRIIIV158 on PBMC of FcγRIIIV158/V158 volunteers (human) (P08637 17-254 F176V): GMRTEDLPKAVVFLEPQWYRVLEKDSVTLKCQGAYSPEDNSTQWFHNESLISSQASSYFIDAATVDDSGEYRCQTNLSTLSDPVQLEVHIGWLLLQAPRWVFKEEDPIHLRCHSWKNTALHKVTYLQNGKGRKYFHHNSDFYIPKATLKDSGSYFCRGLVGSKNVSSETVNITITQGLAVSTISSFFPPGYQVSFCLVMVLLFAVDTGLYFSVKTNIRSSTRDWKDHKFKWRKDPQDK

[3] = biological target: FcγRIIIF158 on PBMC of FcγRIIIF158/F158 volunteers (human) (UniProt P08637); assay: cell-based or functional assay
Chain of FcγRIIIF158 on PBMC of FcγRIIIF158/F158 volunteers (human) (P08637 17-254): as the sequence (P08637 17-254 F176V) above, with V160F counted along it

[4] = biological target: T2, recombinant trimeric protein of human CD70 extracellular region (human CD70 mIgG Fc (knob) / mouse IgG Fc … (human, UniProt P01863 98-330 = IgG part)); assay: competition ELISA, humanized IgG1 titrated, CD27 coated, biotin-CD70, human pair
T2 construct: The ELISA and Octet texts say only 'recombinant CD70 protein' / 'CM352 antigen'; also called recombinant human CD70 protein; recombinant CD70 protein
T2 chain 1: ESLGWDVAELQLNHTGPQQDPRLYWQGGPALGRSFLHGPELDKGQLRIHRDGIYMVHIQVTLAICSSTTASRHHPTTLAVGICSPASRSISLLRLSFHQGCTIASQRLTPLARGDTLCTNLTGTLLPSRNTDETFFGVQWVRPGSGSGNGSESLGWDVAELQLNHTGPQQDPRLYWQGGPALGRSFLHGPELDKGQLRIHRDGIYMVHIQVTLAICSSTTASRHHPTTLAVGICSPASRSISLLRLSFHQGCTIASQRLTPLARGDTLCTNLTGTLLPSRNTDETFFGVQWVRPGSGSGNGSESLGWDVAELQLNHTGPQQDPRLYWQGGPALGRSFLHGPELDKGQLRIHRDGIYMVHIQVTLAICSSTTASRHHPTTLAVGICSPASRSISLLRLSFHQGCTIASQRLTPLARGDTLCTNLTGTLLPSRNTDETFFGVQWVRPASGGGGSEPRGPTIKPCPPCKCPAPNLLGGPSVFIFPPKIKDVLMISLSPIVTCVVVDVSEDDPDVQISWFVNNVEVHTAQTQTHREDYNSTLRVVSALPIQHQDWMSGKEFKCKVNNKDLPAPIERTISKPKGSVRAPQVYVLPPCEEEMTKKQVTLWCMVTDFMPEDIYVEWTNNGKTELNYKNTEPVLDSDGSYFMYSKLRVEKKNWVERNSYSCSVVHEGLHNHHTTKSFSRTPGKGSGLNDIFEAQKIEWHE
T2 chain 2: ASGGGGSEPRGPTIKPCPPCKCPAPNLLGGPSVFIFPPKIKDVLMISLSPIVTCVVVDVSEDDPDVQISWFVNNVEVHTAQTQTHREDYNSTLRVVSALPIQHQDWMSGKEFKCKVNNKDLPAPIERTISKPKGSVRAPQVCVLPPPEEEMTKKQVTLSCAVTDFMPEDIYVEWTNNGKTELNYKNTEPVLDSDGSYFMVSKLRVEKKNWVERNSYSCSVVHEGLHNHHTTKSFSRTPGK
Protocol: The recombinant human CD27 protein was coated at 1 μg/mL in a 96-well microtiter plate and incubated overnight at 4° C. The next day, the plate was washed 3 times with PBS, added with 200 μL of 2% defatted dry milk/PBS, blocked at room temperature for 2 hours, and washed once with PBS. […] 30 μl of the antibody was added per well and incubated at room temperature for 30 minutes. […] The plate was washed 3 times with PBST and PBS and dried by spinning. A secondary antibody solution Streptavidin-coupled horseradish peroxidase SA-HRP (BD bioscience, Cat. No: 6222697) was diluted with 0.5% BSA in a ratio of 1:8000. 100 μL of the diluent was added into each well and incubated at room temperature for 30 minutes. The plate was washed 3 times with PBST and PBS and dried by spinning. […] of color development solution (TMB solution, Sigma, Cat. No: T2885) was added into each well and protected from light at 37° C. for reaction. After the substrate developed moderately, […] of H₂SO₄ was added into each well to terminate the reaction. The OD450 nm was determined using an enzyme-linked detector within 30 minutes, and the data was collected. The results were calculated by using Graph Pad Prism 5 software. See FIG. 10-1, 10-2, and Table 12 for the results.

[5] = biological target: T3, recombinant cynomolgus monkey CD70 protein (cynomolgus monkey, UniProt A0A2K5WTU9 39-190); assay: competition ELISA, humanized IgG1 titrated, CD27 coated, biotin-CD70, cynomolgus pair
T3 construct: it stands only in column heads ('Monkey', 'Cynomolgus Monkey CD70/CD27') and in result sentences; also called Monkey (ELISA)
T3 sequence: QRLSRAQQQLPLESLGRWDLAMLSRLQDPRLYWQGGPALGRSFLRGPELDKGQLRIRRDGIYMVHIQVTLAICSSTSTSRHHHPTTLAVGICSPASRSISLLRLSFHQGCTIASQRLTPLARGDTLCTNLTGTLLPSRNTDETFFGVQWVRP

[6] = biological target: T2, recombinant trimeric protein of human …; assay: cell-based or functional assay
[7] = biological target: FcγRIII F158 (CD16a receptor, low-affinity allele) (human) (UniProt P08637); assay: SPR (Biacore)
Chain of FcγRIII F158 (CD16a receptor, low-affinity allele) (human) (P08637 17-208 limits assumed): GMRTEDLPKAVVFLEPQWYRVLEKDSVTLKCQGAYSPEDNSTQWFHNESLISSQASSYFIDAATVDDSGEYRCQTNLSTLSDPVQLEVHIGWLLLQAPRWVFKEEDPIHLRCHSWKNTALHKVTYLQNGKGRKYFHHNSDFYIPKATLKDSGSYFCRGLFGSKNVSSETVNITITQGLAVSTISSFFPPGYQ

[8] = biological target: FcγRIII V158 (CD16a receptor, high-affinity allele) (human) (UniProt P08637); assay: SPR (Biacore)
Chain of FcγRIII V158 (CD16a receptor, high-affinity allele) (human) (P08637 17-208 F176V limits assumed): as the sequence (P08637 17-208 limits assumed) above, with F160V counted along it

[9] = biological target: T4, cynomolgus monkey CD70, full length, on CHO cells (CHO-monkey CD70-D01) (cynomolgus monkey, UniProt A0A2K5WTU9 1-190); assay: flow cytometry, humanized IgG1 on CHO-cynomolgus monkey CD70 cells
T4 construct: whole, on cells; Stably transfected CHO cells; also called CHO-cynomolgus monkey CD70
T4 sequence: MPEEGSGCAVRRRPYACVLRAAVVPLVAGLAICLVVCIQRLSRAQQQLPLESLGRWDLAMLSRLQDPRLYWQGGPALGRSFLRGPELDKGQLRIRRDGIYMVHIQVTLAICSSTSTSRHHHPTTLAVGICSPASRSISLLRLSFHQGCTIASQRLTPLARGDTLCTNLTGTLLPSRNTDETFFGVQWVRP
Protocol: as §1

[10] = biological target: T3, recombinant cynomolgus monkey CD70 …; assay: competition ELISA, Fab titrated, cynomolgus CD27 coated, biotin-CD70
Protocol: (§2) The next day, the plate was washed 3 times with PBS, added with 200 μL of 2% defatted dry milk/PBS, blocked at room temperature for 2 hours, and washed once with PBS, 50 μL of different dilution gradients of Fab antibodies were added and incubated at room temperature for 30 minutes. […] The plate was washed 3 times with PBST and PBS and dried by spinning. A secondary antibody solution Streptavidin-coupled horseradish peroxidase SA-HRP (BD bioscience, Cat. No: 6222697) was diluted with 0.5% BSA in a ratio of 1:8000. 100 μl of the diluent was added into each well and incubate at room temperature for 30 minutes. The plate was washed 3 times with PBST and PBS and dried by spinning. 100 μl of the color development solution (TMB solution, Sigma, Cat. No: T2885) was added into each well and protected from light at 37° C. for reaction. After the substrate developed moderately, 50 μl of 2M concentrated sulfuric acid solution was added into each well to terminate the reaction. The OD450 nm was determined by using an enzyme-linked detector within 30 minutes, and the data was collected.

[11] = biological target: T2, recombinant trimeric protein of human …; assay: competition ELISA, Fab titrated, human CD27 coated, biotin-CD70
Protocol: as §2

[12] = biological target: T2, recombinant trimeric protein of human …; assay: BLI (Octet), biotin antigen on SA probe, Fab in solution
[13] = biological target: T1, human CD70, full length, on CHO cells …; assay: flow cytometry, Fab on CHO-human CD70 cells
Protocol: (§3) The blank control cell CHO and stably-transfected cell line CHO-CD70 were prepared and added at 5×10⁴ cells/well into a 96-well plate respectively. 50 μL of Fab antibodies with different dilution gradients were added into each well and incubated at 4° C. for 60 minutes. The centrifuge was performed to discard the supernatant. The plate was washed with 0.5% BSA/PBS and added with 50 μL of a secondary antibody solution (Anti-human IgG F (ab′) 2-AF647, Jackson Immuno Research) and incubated at 4° C. for 45 minutes. The excess secondary antibody was washed off with 0.5% BSA. The PBS solution was added to resuspend cells for flow cytometry. The data was collected.

[14] = biological target: T4, cynomolgus monkey CD70, full length, on …; assay: flow cytometry, Fab on CHO-cynomolgus CD70 cells
Protocol: as §3

Row | Binder | EC50 [1] [nM] | ADCC Killing EC50, Daudi targets, FcγRIIIV158 PBMC [2] [nM] | ADCC Maximum killing rate, Daudi targets, FcγRIIIV158 PBMC [2] [%] | ADCC Killing EC50, Daudi targets, FcγRIIIF158 PBMC [3] [nM] | ADCC Maximum killing rate, Daudi targets, FcγRIIIF158 PBMC [3] [%] | IC50 [4] [nM] | IC50 [5] [nM] | Inhibition of IL-8 secretion IC50(nM), HT1080-human CD27 cells stimulated with recombinant human CD70 [6] [nM] | Kd [7] [nM] | Kd [8] [nM] | EC50 [9] [nM] | IC50 [10] [nM] | IC50 [11] [nM] | koff [12] [s⁻¹] | EC50 [13] [nM] | EC50 [14] [nM]
1 | B1 | 2.15 | 0.22 | 40 | 0.23 | 13 | 0.04 | 0.05 | 11 | 1300 | 565 | 3.39 | – | – | – | – | –
2 | B2 | 2 | – | – | – | – | 0.04 | 0.05 | 10.7 | – | – | 5.78 | – | – | – | – | –
3 | B3 | 2.57 | – | – | – | – | 0.04 | 0.05 | 9.92 | – | – | 3.14 | – | – | – | – | –
4 | B4 | – | – | – | – | – | – | – | – | – | – | – | 14.4 | 0.76 | 0.000326 | 15.5 | 23.4
5 | B5 | – | – | – | – | – | – | – | – | – | – | – | 0.37 | 0.38 | 9e-05 | 8.7 | 10.2
6 | B6 | – | – | – | – | – | – | – | – | – | – | – | 4.36 | 4.82 | 0.000287 | 40.7 | 49.7
